± gives the uncertainty stated by the source.
B1: Calcium-binding protein 2, residues 155 to 219; numbered along this chain, Q9NPB3 (parent)
chain: RELRDAFREFDTNGDGRISVGELRAALKALLGERLSQREVDEILQDVDLNGDGLVDFEEFVRMMS

Variants of: B1
Experiment: abundance fitness (aPCA) (normalised: wild type 0, dead -1); higher = more abundant; growth selection in yeast, the domain comes from the species named
Conditions: Homo sapiens

Question: With RELRDAFREFDTNGDGRISVGELRAALKALLGERLSQREVDEILQDVDLNGDGLVDFPEFVRMMS [E58P] as the variant, how does the abundance fitness read?
Answer: Its abundance fitness is -0.025 ± 0.1.

Question: With RELRDAFREFDTNGDGRISVGELRAALKALLGERLSQREVDEILQDVDLNGDGLVDFYEFVRMMS [E58Y] as the variant, how does the abundance fitness read?
Answer: The abundance fitness was -0.43 ± 0.16.

Question: With RELRDAFREFDTNGDGRISVGELRAALKALLGERLSQREVDEILQDVDLNGDGLVDFWEFVRMMS [E58W] as the variant, how does the abundance fitness read?
Answer: Its abundance fitness is -0.431 ± 0.13.

Question: Which abundance fitness does the source give for RELRDAFREFDTNGDGRISVGELRAALKALLGERLSQREVDEILQDVDLNGDGLVDFMEFVRMMS [E58M] here?
Answer: Its abundance fitness is -0.202 ± 0.2.

Question: For RELRDAFREFDTNGDGRISVGELRAALKALLGERLSQREVDEILQDVDLNGDGLVDFSEFVRMMS [E58S], which abundance fitness is on record?
Answer: The abundance fitness was -0.019 ± 0.077.

Question: For RELRDAFREFDTNGDGRISVGELRAALKALLGERLSQREVDEILQDVDLNGDGLVDFKEFVRMMS [E58K], which abundance fitness is on record?
Answer: The abundance fitness was 0.102 ± 0.2.

Question: For RELRDAFREFDTNGDGRISVGELRAALKALLGERLSQREVDEILQDVDLNGDGLVDFLEFVRMMS [E58L], which abundance fitness is on record?
Answer: Its abundance fitness is -0.008 ± 0.097.

Question: Which abundance fitness does the source give for RELRDAFREFDTNGDGRISVGELRAALKALLGERLSQREVDEILQDVDLNGDGLVDFEESVRMMS [F60S] here?
Answer: The abundance fitness was -0.326 ± 0.073.

Question: With RELRDAFREFDTNGDGRISVGELRAALKALLGERLSQREVDEILQDVDLNGDGLVDFEEKVRMMS [F60K] as the variant, how does the abundance fitness read?
Answer: The abundance fitness was -1.08 ± 0.28.

Question: With RELRDAFREFDTNGDGRISVGELRAALKALLGERLSQREVDEILQDVDLNGDGLVDFEECVRMMS [F60C] as the variant, how does the abundance fitness read?
Answer: Its abundance fitness is -0.176 ± 0.077.

Question: Which abundance fitness does the source give for RELRDAFREFDTNGDGRISVGELRAALKALLGERLSQREVDEILQDVDLNGDGLVDFEERVRMMS [F60R] here?
Answer: The abundance fitness was -0.798 ± 0.12.

Question: With RELRDAFREFDTNGDGRISVGELRAALKALLGERLSQREVDEILQDVDLNGDGLVDFEEWVRMMS [F60W] as the variant, how does the abundance fitness read?
Answer: The abundance fitness was -0.012 ± 0.072.

Question: With RELRDAFREFDTNGDGRISVGELRAALKALLGERLSQREVDEILQDVDLNGDGLVDFEEMVRMMS [F60M] as the variant, how does the abundance fitness read?
Answer: Its abundance fitness is -0.116 ± 0.27.

Question: Which abundance fitness does the source give for RELRDAFREFDTNGDGRISVGELRAALKALLGERLSQREVDEILQDVDLNGDGLVDFEEHVRMMS [F60H] here?
Answer: Its abundance fitness is -0.875 ± 0.14.

Question: For RELRDAFREFDTNGDGRISVGELRAALKALLGERLSQREVDEILQDVDLNGDGLVDFEEDVRMMS [F60D], which abundance fitness is on record?
Answer: Its abundance fitness is -0.71 ± 0.16.

Question: For RELRDAFREFDTNGDGRISVGELRAALKALLGERLSQREVDEILQDVDLNGDGLVDFEEAVRMMS [F60A], which abundance fitness is on record?
Answer: Its abundance fitness is -0.471 ± 0.074.

Question: With RELRDAFREFDTNGDGRISVGELRAALKALLGERLSQREVDEILQDVDLNGDGLVDFEEPVRMMS [F60P] as the variant, how does the abundance fitness read?
Answer: The abundance fitness was -0.896 ± 0.11.

Question: Which abundance fitness does the source give for RELRDAFREFDTNGDGRISVGELRAALKALLGERLSQREVDEILQDVDLNGDGLVDFEEEVRMMS [F60E] here?
Answer: The abundance fitness was -0.672 ± 0.094.

Question: With RELRDAFREFDTNGDGRISVGELRAALKALLGERLSQREVDEILQDVDLNGDGLVDFEEVVRMMS [F60V] as the variant, how does the abundance fitness read?
Answer: Its abundance fitness is -0.278 ± 0.11.

Question: For RELRDAFREFDTNGDGRISVGELRAALKALLGERLSQREVDEILQDVDLNGDGLVDFEEQVRMMS [F60Q], which abundance fitness is on record?
Answer: Its abundance fitness is -0.899 ± 0.12.

Question: For RELRDAFREFDTNGDGRISVGELRAALKALLGERLSQREVDEILQDVDLNGDGLVDFEELVRMMS [F60L], which abundance fitness is on record?
Answer: Its abundance fitness is -0.228 ± 0.082.

Question: For RELRDAFREFDTNGDGRISVGELRAALKALLGERLSQREVDEILQDVDLNGDGLVDFEEIVRMMS [F60I], which abundance fitness is on record?
Answer: Its abundance fitness is 0.116 ± 0.34.

Question: With RELRDAFREFDTNGDGRISVGELRAALKALLGERLSQREVDEILQDVDLNGDGLVDFEETVRMMS [F60T] as the variant, how does the abundance fitness read?
Answer: The abundance fitness was -0.306 ± 0.096.

Question: For RELRDAFREFDTNGDGRISVGELRAALKALLGERLSQREVDEILQDVDLNGDGLVDFECFVRMMS [E59C], which abundance fitness is on record?
Answer: Its abundance fitness is 0.033 ± 0.072.

Question: Which abundance fitness does the source give for RELRDAFREFDTNGDGRISVGELRAALKALLGERLSQREVDEILQDVDLNGDGLVDFEWFVRMMS [E59W] here?
Answer: The abundance fitness was -0.259 ± 0.081.

Question: For RELRDAFREFDTNGDGRISVGELRAALKALLGERLSQREVDEILQDVDLNGDGLVDFETFVRMMS [E59T], which abundance fitness is on record?
Answer: The abundance fitness was 0.088 ± 0.096.

Question: With RELRDAFREFDTNGDGRISVGELRAALKALLGERLSQREVDEILQDVDLNGDGLVDFEPFVRMMS [E59P] as the variant, how does the abundance fitness read?
Answer: The abundance fitness was -0.1 ± 0.13.

Question: For RELRDAFREFDTNGDGRISVGELRAALKALLGERLSQREVDEILQDVDLNGDGLVDFEIFVRMMS [E59I], which abundance fitness is on record?
Answer: Its abundance fitness is -0.051 ± 0.1.

Question: Which abundance fitness does the source give for RELRDAFREFDTNGDGRISVGELRAALKALLGERLSQREVDEILQDVDLNGDGLVDFEFFVRMMS [E59F] here?
Answer: Its abundance fitness is -0.146 ± 0.11.

Question: Which abundance fitness does the source give for RELRDAFREFDTNGDGRISVGELRAALKALLGERLSQREVDEILQDVDLNGDGLVDFEKFVRMMS [E59K] here?
Answer: Its abundance fitness is -0.092 ± 0.21.

Question: With RELRDAFREFDTNGDGRISVGELRAALKALLGERLSQREVDEILQDVDLNGDGLVDFERFVRMMS [E59R] as the variant, how does the abundance fitness read?
Answer: The abundance fitness was -0.089 ± 0.056.

Question: With RELRDAFREFDTNGDGRISVGELRAALKALLGERLSQREVDEILQDVDLNGDGLVDFEMFVRMMS [E59M] as the variant, how does the abundance fitness read?
Answer: The abundance fitness was 0.059 ± 0.068.

Question: For RELRDAFREFDTNGDGRISVGELRAALKALLGERLSQREVDEILQDVDLNGDGLVDFEAFVRMMS [E59A], which abundance fitness is on record?
Answer: The abundance fitness was -0.072 ± 0.064.

Question: For RELRDAFREFDTNGDGRISVGELRAALKALLGERLSQREVDEILQDVDLNGDGLVDFEQFVRMMS [E59Q], which abundance fitness is on record?
Answer: Its abundance fitness is -0.025 ± 0.097.

Question: For RELRDAFREFDTNGDGRISVGELRAALKALLGERLSQREVDEILQDVDLNGDGLVDFESFVRMMS [E59S], which abundance fitness is on record?
Answer: The abundance fitness was -0.075 ± 0.064.

Question: Which abundance fitness does the source give for RELRDAFREFDTNGDGRISVGELRAALKALLGERLSQREVDEILQDVDLNGDGLVDFEGFVRMMS [E59G] here?
Answer: The abundance fitness was -0.171 ± 0.064.

Question: Which abundance fitness does the source give for RELRDAFREFDTNGDGRISVGELRAALKALLGERLSQREVDEILQDVDLNGDGLVDFELFVRMMS [E59L] here?
Answer: The abundance fitness was 0.071 ± 0.055.

Question: For RELRDAFREFDTNGDGRISVGELRAALKALLGERLSQREVDEILQDVDLNGDGLVDFEVFVRMMS [E59V], which abundance fitness is on record?
Answer: The abundance fitness was 0.083 ± 0.074.

Question: With RELRDAFREFDTNGDGRISVGELRAALKALLGERLSQREVDEILQDVDLNGDGLVDFEDFVRMMS [E59D] as the variant, how does the abundance fitness read?
Answer: Its abundance fitness is -0.405 ± 0.2.

Question: For RELRDAFREFDTNGDGRISVGELRAALKALLGERLSQREVDEILQDVDLNGDGLVDFEHFVRMMS [E59H], which abundance fitness is on record?
Answer: The abundance fitness was -0.164 ± 0.19.

Question: With RELRDAFREFDTNGDGRISVGELRAALKALLGERLSQREVDEILQDVDLNGDGLVDFENFVRMMS [E59N] as the variant, how does the abundance fitness read?
Answer: Its abundance fitness is -0.282 ± 0.22.

Question: For RELRDAFREFDTNGDGRISVGELRAALKALLGERLSQREVDEILQDVDLNGDGLVDFEYFVRMMS [E59Y], which abundance fitness is on record?
Answer: Its abundance fitness is -0.157 ± 0.22.

— the Human Domainome abundance scans (Beltran et al. 2025)
